27 molecules from paper PMC10786891, “Massively parallel profiling of RNA-targeting CRISPR-Cas13d” can be followed below.

The labels stand for the following.
T1: EsCas13d, nuclease-dead (Eubacterium siraeum, UniProt B0MS50, R295A;H300A;R849A;H854A)
T1 sequence: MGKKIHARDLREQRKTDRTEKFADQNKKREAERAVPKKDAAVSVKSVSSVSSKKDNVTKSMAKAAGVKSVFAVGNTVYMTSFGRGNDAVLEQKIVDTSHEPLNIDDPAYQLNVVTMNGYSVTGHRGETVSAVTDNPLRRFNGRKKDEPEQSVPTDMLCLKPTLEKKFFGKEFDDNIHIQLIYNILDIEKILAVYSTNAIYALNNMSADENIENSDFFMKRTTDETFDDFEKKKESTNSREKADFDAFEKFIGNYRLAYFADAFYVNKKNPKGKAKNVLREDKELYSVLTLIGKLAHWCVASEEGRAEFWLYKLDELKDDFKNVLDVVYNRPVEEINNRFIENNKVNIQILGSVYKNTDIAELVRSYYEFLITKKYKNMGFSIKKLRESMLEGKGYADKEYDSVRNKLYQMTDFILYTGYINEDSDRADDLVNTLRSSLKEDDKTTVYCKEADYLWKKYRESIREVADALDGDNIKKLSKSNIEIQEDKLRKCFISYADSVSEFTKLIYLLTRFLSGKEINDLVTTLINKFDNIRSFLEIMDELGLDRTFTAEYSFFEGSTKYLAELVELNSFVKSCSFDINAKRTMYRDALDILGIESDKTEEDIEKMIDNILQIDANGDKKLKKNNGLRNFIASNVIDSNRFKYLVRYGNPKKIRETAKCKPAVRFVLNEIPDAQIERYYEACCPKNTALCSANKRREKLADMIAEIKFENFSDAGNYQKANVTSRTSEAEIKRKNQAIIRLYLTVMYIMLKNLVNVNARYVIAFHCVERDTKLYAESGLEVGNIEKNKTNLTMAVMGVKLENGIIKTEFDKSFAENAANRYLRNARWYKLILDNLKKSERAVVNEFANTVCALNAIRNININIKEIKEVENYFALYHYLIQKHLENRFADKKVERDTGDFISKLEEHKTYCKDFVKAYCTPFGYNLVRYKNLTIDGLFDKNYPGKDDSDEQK

B1: target 1 insG 3' of 4,insG 3' of 3 (mixed)
RNA 1: CACCCGUGCAAAAAUGCAGGGGUCUAAAACUGAGCGGAUAACCUCUCUAUGG
RNA 2: GGGAAUGGAUCCACAUCUACGAAUUCGUACCAUAGAGAGGUUAUCCGCGUGCACCGAGAUCGGAAGAGCACACGU
B2: target 1 insG 3' of 16,insG 3' of 11 (mixed)
RNA 1: CACCCGUGCAAAAAUGCAGGGGUCUAAAACUGAGCGGAUAACCUCUCUAUGG
RNA 2: GGGAAUGGAUCCACAUCUACGAAUUCGUACCAUAGAGGAGGUGUAUCCGCUCACCGAGAUCGGAAGAGCACACGU
B3: target 1 insC 3' of 17,insU 3' of 9 (mixed)
RNA 1: CACCCGUGCAAAAAUGCAGGGGUCUAAAACUGAGCGGAUAACCUCUCUAUGG
RNA 2: GGGAAUGGAUCCACAUCUACGAAUUCGUACCAUAGCAGAGGUUAUUCCGCUCACCGAGAUCGGAAGAGCACACGU
B4: target 1 insG 3' of 18,insG 3' of 14 (mixed)
RNA 1: CACCCGUGCAAAAAUGCAGGGGUCUAAAACUGAGCGGAUAACCUCUCUAUGG
RNA 2: GGGAAUGGAUCCACAUCUACGAAUUCGUACCAUAGGAGAGGGUUAUCCGCUCACCGAGAUCGGAAGAGCACACGU
B5: target 1 insC 3' of 13 (mixed)
RNA 1: CACCCGUGCAAAAAUGCAGGGGUCUAAAACUGAGCGGAUAACCUCUCUAUGG
RNA 2: GGGAAUGGAUCCACAUCUACGAAUUCGUACCAUAGAGAGCGUUAUCCGCUCACCGAGAUCGGAAGAGCACACGU
B6: target 1 insC 3' of 17,insG 3' of 4 (mixed)
RNA 1: CACCCGUGCAAAAAUGCAGGGGUCUAAAACUGAGCGGAUAACCUCUCUAUGG
RNA 2: GGGAAUGGAUCCACAUCUACGAAUUCGUACCAUAGCAGAGGUUAUCCGCGUCACCGAGAUCGGAAGAGCACACGU
B7: target 1 insU 3' of 7,insA 3' of 2 (mixed)
RNA 1: CACCCGUGCAAAAAUGCAGGGGUCUAAAACUGAGCGGAUAACCUCUCUAUGG
RNA 2: GGGAAUGGAUCCACAUCUACGAAUUCGUACCAUAGAGAGGUUAUCUCGCUCAACCGAGAUCGGAAGAGCACACGU
B8: target 1 C2G,U19C (mixed)
RNA 1: CACCCGUGCAAAAAUGCAGGGGUCUAAAACUGAGCGGAUAACCUCUCUAUGG
RNA 2: GGGAAUGGAUCCACAUCUACGAAUUCGUACCACAGAGAGGUUAUCCGCUGACCGAGAUCGGAAGAGCACACGU
B9: target 1 insG 3' of 21,insC 3' of 20 (mixed)
RNA 1: CACCCGUGCAAAAAUGCAGGGGUCUAAAACUGAGCGGAUAACCUCUCUAUGG
RNA 2: GGGAAUGGAUCCACAUCUACGAAUUCGUACCGACUAGAGAGGUUAUCCGCUCACCGAGAUCGGAAGAGCACACGU
B10: target 1 insA 3' of 8,insU 3' of 4 (mixed)
RNA 1: CACCCGUGCAAAAAUGCAGGGGUCUAAAACUGAGCGGAUAACCUCUCUAUGG
RNA 2: GGGAAUGGAUCCACAUCUACGAAUUCGUACCAUAGAGAGGUUAUACCGCUUCACCGAGAUCGGAAGAGCACACGU
B11: target 1 insG 3' of 21,insU 3' of 20 (mixed)
RNA 1: CACCCGUGCAAAAAUGCAGGGGUCUAAAACUGAGCGGAUAACCUCUCUAUGG
RNA 2: GGGAAUGGAUCCACAUCUACGAAUUCGUACCGAUUAGAGAGGUUAUCCGCUCACCGAGAUCGGAAGAGCACACGU
B12: target 1 insC 3' of 18,insU 3' of 2 (mixed)
RNA 1: CACCCGUGCAAAAAUGCAGGGGUCUAAAACUGAGCGGAUAACCUCUCUAUGG
RNA 2: GGGAAUGGAUCCACAUCUACGAAUUCGUACCAUACGAGAGGUUAUCCGCUCUACCGAGAUCGGAAGAGCACACGU
B13: target 1 insC 3' of 13,insC 3' of 8 (mixed)
RNA 1: CACCCGUGCAAAAAUGCAGGGGUCUAAAACUGAGCGGAUAACCUCUCUAUGG
RNA 2: GGGAAUGGAUCCACAUCUACGAAUUCGUACCAUAGAGAGCGUUAUCCCGCUCACCGAGAUCGGAAGAGCACACGU
B14: target 1 insU 3' of 17 (mixed)
RNA 1: CACCCGUGCAAAAAUGCAGGGGUCUAAAACUGAGCGGAUAACCUCUCUAUGG
RNA 2: GGGAAUGGAUCCACAUCUACGAAUUCGUACCAUAGUAGAGGUUAUCCGCUCACCGAGAUCGGAAGAGCACACGU
B15: target 1 U11A,G13A (mixed)
RNA 1: CACCCGUGCAAAAAUGCAGGGGUCUAAAACUGAGCGGAUAACCUCUCUAUGG
RNA 2: GGGAAUGGAUCCACAUCUACGAAUUCGUACCAUAGAGAAGAUAUCCGCUCACCGAGAUCGGAAGAGCACACGU
B16: target 1 insG 3' of 16,insA 3' of 4 (mixed)
RNA 1: CACCCGUGCAAAAAUGCAGGGGUCUAAAACUGAGCGGAUAACCUCUCUAUGG
RNA 2: GGGAAUGGAUCCACAUCUACGAAUUCGUACCAUAGAGGAGGUUAUCCGCAUCACCGAGAUCGGAAGAGCACACGU
B17: target 1 insC 3' of 15 (mixed)
RNA 1: CACCCGUGCAAAAAUGCAGGGGUCUAAAACUGAGCGGAUAACCUCUCUAUGG
RNA 2: GGGAAUGGAUCCACAUCUACGAAUUCGUACCAUAGAGCAGGUUAUCCGCUCACCGAGAUCGGAAGAGCACACGU
B18: target 1 C2G,C7A (mixed)
RNA 1: CACCCGUGCAAAAAUGCAGGGGUCUAAAACUGAGCGGAUAACCUCUCUAUGG
RNA 2: GGGAAUGGAUCCACAUCUACGAAUUCGUACCAUAGAGAGGUUAUACGCUGACCGAGAUCGGAAGAGCACACGU
B19: target 1 insU 3' of 18,insA 3' of 17 (mixed)
RNA 1: CACCCGUGCAAAAAUGCAGGGGUCUAAAACUGAGCGGAUAACCUCUCUAUGG
RNA 2: GGGAAUGGAUCCACAUCUACGAAUUCGUACCAUAUGAAGAGGUUAUCCGCUCACCGAGAUCGGAAGAGCACACGU
B20: target 1 insA 3' of 19,insC 3' of 19 (mixed)
RNA 1: CACCCGUGCAAAAAUGCAGGGGUCUAAAACUGAGCGGAUAACCUCUCUAUGG
RNA 2: GGGAAUGGAUCCACAUCUACGAAUUCGUACCAUACAGAGAGGUUAUCCGCUCACCGAGAUCGGAAGAGCACACGU
B21: target 1 insU 3' of 9,insU 3' of 5 (mixed)
RNA 1: CACCCGUGCAAAAAUGCAGGGGUCUAAAACUGAGCGGAUAACCUCUCUAUGG
RNA 2: GGGAAUGGAUCCACAUCUACGAAUUCGUACCAUAGAGAGGUUAUUCCGUCUCACCGAGAUCGGAAGAGCACACGU
B22: target 1 insC 3' of 13,insA 3' of 3 (mixed)
RNA 1: CACCCGUGCAAAAAUGCAGGGGUCUAAAACUGAGCGGAUAACCUCUCUAUGG
RNA 2: GGGAAUGGAUCCACAUCUACGAAUUCGUACCAUAGAGAGCGUUAUCCGCUACACCGAGAUCGGAAGAGCACACGU
B23: target 1 insG 3' of 16,insC 3' of 14 (mixed)
RNA 1: CACCCGUGCAAAAAUGCAGGGGUCUAAAACUGAGCGGAUAACCUCUCUAUGG
RNA 2: GGGAAUGGAUCCACAUCUACGAAUUCGUACCAUAGAGGACGGUUAUCCGCUCACCGAGAUCGGAAGAGCACACGU
B24: target 1 insG 3' of 18,insC 3' of 18 (mixed)
RNA 1: CACCCGUGCAAAAAUGCAGGGGUCUAAAACUGAGCGGAUAACCUCUCUAUGG
RNA 2: GGGAAUGGAUCCACAUCUACGAAUUCGUACCAUAGCGAGAGGUUAUCCGCUCACCGAGAUCGGAAGAGCACACGU
B25: target 1 insC 3' of 20,insG 3' of 4 (mixed)
RNA 1: CACCCGUGCAAAAAUGCAGGGGUCUAAAACUGAGCGGAUAACCUCUCUAUGG
RNA 2: GGGAAUGGAUCCACAUCUACGAAUUCGUACCACUAGAGAGGUUAUCCGCGUCACCGAGAUCGGAAGAGCACACGU
B26: target 1 C4G,U19C (mixed)
RNA 1: CACCCGUGCAAAAAUGCAGGGGUCUAAAACUGAGCGGAUAACCUCUCUAUGG
RNA 2: GGGAAUGGAUCCACAUCUACGAAUUCGUACCACAGAGAGGUUAUCCGGUCACCGAGAUCGGAAGAGCACACGU
B27: target 1 insA 3' of 22,insA 3' of 22 (mixed)
RNA 1: CACCCGUGCAAAAAUGCAGGGGUCUAAAACUGAGCGGAUAACCUCUCUAUGG
RNA 2: GGGAAUGGAUCCACAUCUACGAAUUCGUACAACAUAGAGAGGUUAUCCGCUCACCGAGAUCGGAAGAGCACACGU

The data set deals with T1, EsCas13d, nuclease-dead. The data set can be described thus: crRNA (strand 1, pre-loaded); Mg2+; 40 mM Tris-HCl pH 7.5, 150 mM NaCl, 6 mM MgCl2, 1 mM DTT, 0.1% Tween-20, 0.2 mg/ml BSA; 25 C; 10 min per concentration, then washed. The settings on record: tags: His6-TwinStrep-SUMO cleaved; N-terminal SNAP kept (SNAP-Surface 488); label: 3' end held by stalled T7 RNA polymerase.
B1: the equilibrium dissociation constant (Kd) (usually the concentration at which binding is half-saturated) worked out at 8.2 ± 0.35 nM.
Then B2, with 50 ± 5 nM.
Regarding B3, the dissociation constant Kd is 39 ± 7 nM.
Then B4, with 63 ± 5 nM; and B5, with 9.1 ± 0.4 nM.
For B6 the value was 30.9 ± 2.4 nM; for B7, 18.7 ± 1.5 nM.
Then B8, with 18.5 ± 1 nM; and B9, with 15.3 ± 1.1 nM; and B10, with 12.3 ± 0.7 nM.
As for B11, binding was characterised by a dissociation constant (Kd) of 58 ± 9 nM.
For B12 the value was 38 ± 7 nM.
Then B13, with 13.1 ± 0.4 nM; and B14, with 14.1 ± 1.2 nM; and B15, with 38.5 ± 2.8 nM.
B16 returned a Kd of 10.5 ± 0.5 nM.
As for B17, binding was characterised by a dissociation constant (Kd) of 16.3 ± 0.8 nM.
Then B18, with 6.22 ± 0.24 nM.
The molecule B19 registered an equilibrium dissociation constant (Kd) of 54 ± 7 nM.
For B20 the value was 21.5 ± 1.8 nM.
In the case of B21, the equilibrium dissociation constant (Kd) came to 8 ± 1.5 nM.
For B22 the value was 6.88 ± 0.2 nM.
For B23 the value was 38 ± 5 nM; for B24, 30.8 ± 1.3 nM.
In turn, B25 returned a Kd of 11.4 ± 0.9 nM.
B26: the equilibrium dissociation constant (Kd) worked out at 28 ± 6 nM.
Then B27, with 9.9 ± 0.6 nM.
